Reference: the supplement of paper PMC10724198
± gives the standard deviation of the averaged measurements.

System: Saccharomyces cerevisiae
Assay: protein stability index of tFT-peptide fusion (C-terminal peptide) (PSI (0-1 scale)); higher = more stable (slower turnover)
Conditions: temperature: 30 C
Experimental: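 MPS profiling in S. cerevisiae of the yeast C-terminome library: the last 12 aa of each annotated ORF are fused to the C-terminus of a sfGFP-mCherry timer, after a GGGS linker. Cells are FACS-sorted into 8 mCherry/sfGFP bins and deep-sequenced. PSI runs from 0 (unstable) to 1 (stable); wild type and das1Δ backgrounds, two technical replicates each.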

[1] = genetic background: das1 deletion

Sequence | protein stability index [1] | protein stability index (genetic background: wild type)
PKDLTSLLEWKE [CLA4 C-terminal 12 aa] | 0.7005 ± 0.006 | 0.681 ± 0.044
SKKSKKSKKSEE [MRH1 C-terminal 12 aa] | 0.719 ± 0.0089 | 0.695 ± 0.053
NSLTQKYGTNNV [AAD15 C-terminal 12 aa] | 0.698 ± 0.016 | 0.697 ± 0.029
KNLWHHKINNLN [RAM2 C-terminal 12 aa] | 0.699 ± 0.017 | 0.166 ± 0.021
RTLGYSNNNGNN [UBX6 C-terminal 12 aa] | 0.679 ± 0.019 | 0.678 ± 0.0087
VPSLLILSVFFS [YPS3 C-terminal 12 aa] | 0.27 ± 0.03 | 0.273 ± 0.012
FSVCCKDATEVS [YHR070C-A C-terminal 12 aa] | 0.6764 ± 0.0025 | 0.682 ± 0.031
NTKHYNDTLLKQ [PHO11 C-terminal 12 aa] | 0.718 ± 0.0081 | 0.66 ± 0.0066
KNFKTDLSSSSL [SMK1 C-terminal 12 aa] | 0.7 ± 0.0086 | 0.711 ± 0.014
CLSGGLLRKIPK [TMH18 C-terminal 12 aa] | 0.722 ± 0.087 | 0.6861 ± 0.006
VNERSHDVKFTK [YIL165C C-terminal 12 aa] | 0.686 ± 0.006 | 0.689 ± 0.01
NSAFSSASVTKP [YFR057W C-terminal 12 aa] | 0.711 ± 0.0094 | 0.682 ± 0.023
DSIRRIREKYSN [APP1 C-terminal 12 aa] | 0.6896 ± 0.0039 | 0.492 ± 0.013
SWETKLKQNILE [CSN9 C-terminal 12 aa] | 0.7156 ± 0.0054 | 0.6441 ± 0.0042
QWMNEMVERWAN [SOH1 C-terminal 12 aa] | 0.707 ± 0.0074 | 0.7 ± 0.0099
ENFSSALQSPIF [YDL152W C-terminal 12 aa] | 0.733 ± 0.0084 | 0.754 ± 0.055
YVKNLLTRFFTR [FRT1 C-terminal 12 aa] | 0.7184 ± 0.0033 | 0.732 ± 0.03
NESLNDYFTGIK [YBP1 C-terminal 12 aa] | 0.706 ± 0.0084 | 0.772 ± 0.16
PHEAALPKPSFV [EDC2 C-terminal 12 aa] | 0.7069 ± 0.0042 | 0.719 ± 0.038
AKPAYHWQTRYR [KIN3 C-terminal 12 aa] | 0.703 ± 0.021 | 0.665 ± 0.017
YKDVQDAIRDSL [URA6 C-terminal 12 aa] | 0.708 ± 0.012 | 0.6855 ± 0.0037

Sequence | protein stability index [1] | protein stability index (genetic background: wild type)
KLTIRIKQKTHL [YOR316C-A C-terminal 12 aa] | 0.702 ± 0.012 | 0.6824 ± 0.0065
ACYVQLKKSGAF [COX8 C-terminal 12 aa] | 0.6966 ± 0.0035 | 0.669 ± 0.024
NDIFIPEQEHKQ [HPT1 C-terminal 12 aa] | 0.721 ± 0.011 | 0.674 ± 0.029
NYEDLATTQAAS [BRN1 C-terminal 12 aa] | 0.722 ± 0.011 | 0.68 ± 0.013
TFCVYENLKHRL [FLX1 C-terminal 12 aa] | 0.741 ± 0.019 | 0.726 ± 0.017
VLSNNVPYTQPR [RCH1 C-terminal 12 aa] | 0.703 ± 0.029 | 0.745 ± 0.054
NGRYVDTDFDSM [LCB5 C-terminal 12 aa] | 0.707 ± 0.02 | 0.659 ± 0.013
NIREARYEQQLK [CTF4 C-terminal 12 aa] | 0.733 ± 0.035 | 0.689 ± 0.03
VFEVFSRMDMLL [VPS74 C-terminal 12 aa] | 0.7149 ± 0.0058 | 0.773 ± 0.027
SMKPFKRRKPFF [PRP16 C-terminal 12 aa] | 0.69 ± 0.0092 | 0.72 ± 0.0089
WYEDEDSGDDDM [DML1 C-terminal 12 aa] | 0.698 ± 0.012 | 0.674 ± 0.014
LNNKDTKSVRHA [BRR6 C-terminal 12 aa] | 0.667 ± 0.029 | 0.711 ± 0.026
SVLKRVRKLFGE [VMA7 C-terminal 12 aa] | 0.712 ± 0.004 | 0.684 ± 0.02
KKKRGFLGLFGR [SRP68 C-terminal 12 aa] | 0.706 ± 0.021 | 0.677 ± 0.0092
PGPISFLPVIPI [YLR402W C-terminal 12 aa] | 0.7092 ± 0.0061 | 0.744 ± 0.12
MLAKIHKLNNKA [RFC4 C-terminal 12 aa] | 0.7026 ± 0.0053 | 0.704 ± 0.066
SNRTLSNETDAL [ACE2 C-terminal 12 aa] | 0.7072 ± 0.0038 | 0.701 ± 0.016
GETDSKIKYKYR [SND2 C-terminal 12 aa] | 0.712 ± 0.06 | 0.573 ± 0.026
LQPWEGRLYLLK [IMA5 C-terminal 12 aa] | 0.698 ± 0.048 | 0.693 ± 0.063
QDEDEDEDIEMQ [RAD3 C-terminal 12 aa] | 0.6935 ± 0.0052 | 0.705 ± 0.057
